# Where two headings read alike, the source gives them in different places.
# Molecular target: T1, murine extracellular domain of the Flt3 receptor fused to the transmembrane and intracellular domains of the human Fms (UniProt P07333+Q00342, A795S/A899S/C564L/C654D/C793H/C831G/D601N/D652H/D673E/D898N/DEL545-556/DEL576-597/DEL711-780/E609N/E612Q/E649S/E789R/E803A/E806A/E865D/F571P/F692T/F788L/F807S/G637D/G866C/H565Y/H671Q/H824N/I560L/I563L/I633L/I640L/I867V/I870V/INS558VACMSIMALLLL/INS573QVRWKII/INS599GNSYTFIDPTQLP/INS709AMLGPSLSPGQDPEGGVDYKNIHLEKKYVRRDSGFSSQGVDTYVEMRPVSTSSNDSFSEQDLD/K569Q/K650T/K800Q/K826H/K871Q/L602E/L684H/L690V/L783G/L815V/L840M/L863I/M626V/M665I/N627E/N784R/N900K/P896L/Q570K/Q641K/R572K/R624K/R708A/R848K/S619A/S634G/S639V/S653A/S685G/S706R/S809N/S841N/S844N/T636E/T667S/T787E/V561L/V616T/V638A/V785P/V811I/V822L/V828A/V846I/V889L/Y631F/Y689L/Y703F/Y796S)
# T1 construct: consisting of the murine extracellular domain of the Flt3 receptor fused to the transmembrane and intracellular domains of the human Fms; expressed in transfected cells; host or cells: NIH 3T3 (mFlt3/Fms 3T3 cell line, provided by Dr. Ihor Lemischka)
# T1 sequence (Q00342+P07333 with tags, fused parts or gaps Q00342:DEL545-556/Q00342:INS558VACMSIMALLLL/Q00342:I560L/Q00342:V561L/Q00342:I563L/Q00342:C564L/Q00342:H565Y/Q00342:K569Q/Q00342:Q570K/Q00342:F571P/Q00342:R572K/Q00342:INS573QVRWKII/Q00342:DEL576-597/Q00342:INS599GNSYTFIDPTQLP/Q00342:D601N/Q00342:L602E/Q00342:E609N/Q00342:E612Q/Q00342:V616T/Q00342:S619A/Q00342:R624K/Q00342:M626V/Q00342:N627E/Q00342:Y631F/Q00342:I633L/Q00342:S634G/Q00342:T636E/Q00342:G637D/Q00342:V638A/Q00342:S639V/Q00342:I640L/Q00342:Q641K/Q00342:E649S/Q00342:K650T/Q00342:D652H/Q00342:S653A/Q00342:C654D/Q00342:M665I/Q00342:T667S/Q00342:H671Q/Q00342:D673E/Q00342:L684H/Q00342:S685G/Q00342:Y689L/Q00342:L690V/Q00342:F692T/Q00342:Y703F/Q00342:S706R/Q00342:R708A/Q00342:INS709AMLGPSLSPGQDPEGGVDYKNIHLEKKYVRRDSGFSSQGVDTYVEMRPVSTSSNDSFSEQDLD/Q00342:DEL711-780/Q00342:L783G/Q00342:N784R/Q00342:V785P/Q00342:T787E/Q00342:F788L/Q00342:E789R/Q00342:C793H/Q00342:A795S/Q00342:Y796S/Q00342:K800Q/Q00342:E803A/Q00342:E806A/Q00342:F807S/Q00342:S809N/Q00342:V811I/Q00342:L815V/Q00342:V822L/Q00342:H824N/Q00342:K826H/Q00342:V828A/Q00342:C831G/Q00342:L840M/Q00342:S841N/Q00342:S844N/Q00342:V846I/Q00342:R848K/Q00342:L863I/Q00342:E865D/Q00342:G866C/Q00342:I867V/Q00342:I870V/Q00342:K871Q/Q00342:V889L/Q00342:P896L/Q00342:D898N/Q00342:A899S/Q00342:N900K): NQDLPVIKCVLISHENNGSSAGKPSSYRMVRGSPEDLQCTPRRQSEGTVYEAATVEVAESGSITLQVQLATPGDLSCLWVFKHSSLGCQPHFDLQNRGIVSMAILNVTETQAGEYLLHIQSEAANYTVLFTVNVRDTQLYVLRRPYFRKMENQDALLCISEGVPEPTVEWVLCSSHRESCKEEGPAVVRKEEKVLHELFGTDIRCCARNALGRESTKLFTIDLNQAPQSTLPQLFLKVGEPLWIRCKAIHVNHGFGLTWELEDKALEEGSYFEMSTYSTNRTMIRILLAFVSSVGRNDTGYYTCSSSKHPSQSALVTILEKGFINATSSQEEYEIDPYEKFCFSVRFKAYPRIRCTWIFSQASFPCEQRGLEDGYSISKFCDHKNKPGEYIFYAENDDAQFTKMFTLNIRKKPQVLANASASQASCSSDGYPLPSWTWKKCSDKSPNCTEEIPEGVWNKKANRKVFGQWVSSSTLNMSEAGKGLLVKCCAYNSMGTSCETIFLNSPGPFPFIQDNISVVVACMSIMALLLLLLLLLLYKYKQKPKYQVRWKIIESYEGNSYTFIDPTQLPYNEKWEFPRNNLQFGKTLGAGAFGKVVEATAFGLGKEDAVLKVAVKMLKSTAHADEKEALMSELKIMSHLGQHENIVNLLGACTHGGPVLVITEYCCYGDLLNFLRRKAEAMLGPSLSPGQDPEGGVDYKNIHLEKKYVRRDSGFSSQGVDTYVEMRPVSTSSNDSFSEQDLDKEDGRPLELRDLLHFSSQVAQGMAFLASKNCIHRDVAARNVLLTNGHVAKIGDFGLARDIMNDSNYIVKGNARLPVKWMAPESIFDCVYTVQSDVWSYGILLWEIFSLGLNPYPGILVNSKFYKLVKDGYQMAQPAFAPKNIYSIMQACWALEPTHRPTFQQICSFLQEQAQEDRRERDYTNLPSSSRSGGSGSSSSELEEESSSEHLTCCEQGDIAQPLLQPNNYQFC
# Assay: mFlt3/Fms 3T3 biological screening assay (XTT)
# Assay type: cell-based
# Text: A biological screening assay to search for novel stimulators of the Flt3 receptor was developed using NIH 3T3 cells transfected with expression vectors containing cDNA of murine and human Flt3 and the related Fms receptor. The mFlt3/Fms 3T3 cell line is a 3T3 cell line transfected with nucleic acid encoding a fusion protein consisting of the murine extracellular domain of the Flt3 receptor fused to the transmembrane and intracellular domains of the human Fms (provided by Dr. Ihor Lemischka, Princeton University, Princeton, N.J.). The Stk 3T3 cell line is a 3T3 cell line transfected with the full-length human Flt3 receptor (provided by Dr. Donald Small, Johns Hopkins University, Baltimore, Md.). The human FMS 3T3 cell line is a 3T3 cell line transfected with the full-length human Fms receptor (provided by Dr. Charles Sherr, Saint Jude Children's Research Hospital, Memphis, Tenn. Parent 3T3 cells were purchased from American Type Culture Collection (“ATCC”; Manassas, Va.). Receptor-transfected cells contained Neo resistance genes and were maintained in medium containing 750 µg/ml of G418 (Life Technologies, Rockville, Md.).
# To create factor-dependence for receptor-transfected 3T3 cells, growth conditions were compromised to permit only ligands to rescue cells from death. To do this, 3T3 cell lines were assayed in 96 well plates (Becton Dickinson Labware, Lincoln Park, N.J.) containing 3,000 cells in 100 μL of serum-free medium consisting of 10% AIMV (Life Technologies) and 90% DMEM. In each experiment, samples were serially diluted two-fold across rows starting at a 1:10 dilution. Viable cells were quantitated after 3-5 days by XTT (2,3-bis[Methoxy-4-nitro-5sulfophenyl]-2H-tetrazolium-5 carboxanilide inner salt) (Sigma, St. Louis, Mo.) (Roehm et al., supra). Relative activity (units/ml) and specific activity (units/mg) are defined as the reciprocal dilution at which half-maximal stimulation of cells was detected.
molecule,measurement,setting,value
"Pv-FRIL: FRIL family mannose-binding lectin from Phaseolus vulgaris (red kidney bean), SEQ ID NO: 6 (protein) AQSLSFNFTKFDLDQKDLIFQGDATSTNNVLQLTKLDSGGNPVGASVGRVLFSAPFHLWENSMAVSSFETNLTIQISTPHPYYAADGFAFFLAPHDTVIPPNSWGKFLGLYSNVFRNSPTSENQSFGDVNTDSRVVAVEFDTFPNANIDPNYRHIGIDVNSIKSKETARWEWQNGKTATARISYNSASKKSTVTTFYPGMEVVALSHDVDLHAELPEWVRVGLSASTGEEKQKNTIISWSFTSSLKNNEVKEPKEDMYIANVVRSYTWINDVLSYISNKMYDALNNNHKYVRCSTCMLFMKKK",response of mFlt3/Fms 3T3 cells,,responded in a dose dependent manner
same,response of mFlt3/Fms 3T3 cells,presence of rhIL1,respond to FRIL in the presence of rhIL1

# Source: US6991794B1, “Progenitor cell preservation factors and methods for and products of their use” (ImClone Systems Incorporated, priority 1997, dated 2006)
